# According to US20210284734A1 (SYMPHOGEN A S, published 2021):
# T1: cyno PD1 (limits assumed)
# T1 construct: also called cynomolgus PD-1 expressed on CFSE-stained CHO-S cells
# T1 receptor: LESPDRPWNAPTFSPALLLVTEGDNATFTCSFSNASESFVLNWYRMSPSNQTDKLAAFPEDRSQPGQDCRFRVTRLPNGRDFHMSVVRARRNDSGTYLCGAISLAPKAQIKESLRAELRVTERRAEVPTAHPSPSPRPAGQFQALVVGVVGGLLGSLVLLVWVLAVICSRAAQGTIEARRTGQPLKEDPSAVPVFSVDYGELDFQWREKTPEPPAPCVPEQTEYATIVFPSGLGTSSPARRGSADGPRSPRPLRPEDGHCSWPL
# T2: His-tagged cynomolgus PD-1 ECD (cynomolgus (Macaca fascicularis), UniProt Q15116 25-170 (human entry))
# T2 construct: bought from Acro Biosystems; not shown: His tag
# T2 chain: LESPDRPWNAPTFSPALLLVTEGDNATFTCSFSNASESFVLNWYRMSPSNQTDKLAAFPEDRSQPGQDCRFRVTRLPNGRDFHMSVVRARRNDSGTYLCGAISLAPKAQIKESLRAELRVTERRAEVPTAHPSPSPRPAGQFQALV
# B1: 12777.13362 (antibody, human IgG1, lambda, L234A L235A)
# heavy: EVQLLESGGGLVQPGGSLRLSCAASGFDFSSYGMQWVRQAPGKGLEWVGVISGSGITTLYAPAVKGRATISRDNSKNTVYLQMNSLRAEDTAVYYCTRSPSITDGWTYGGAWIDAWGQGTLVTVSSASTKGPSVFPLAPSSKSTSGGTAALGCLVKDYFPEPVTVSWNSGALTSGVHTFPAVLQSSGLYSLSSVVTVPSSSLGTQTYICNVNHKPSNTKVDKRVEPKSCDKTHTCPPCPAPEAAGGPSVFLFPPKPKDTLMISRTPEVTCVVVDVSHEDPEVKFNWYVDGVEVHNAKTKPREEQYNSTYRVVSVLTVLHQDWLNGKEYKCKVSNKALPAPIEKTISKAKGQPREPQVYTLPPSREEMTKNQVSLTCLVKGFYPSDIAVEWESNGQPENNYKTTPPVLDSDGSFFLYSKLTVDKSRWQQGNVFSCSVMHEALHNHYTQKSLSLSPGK
# light: ELTQDPAVSVALGQTVRITCSGGDGSYGWFQQKPGQAPVTVIYDNDNRPSDIPDRFSGSSSGNTASLTITGAQAEDEADYYCGNADLSGGIFGSGTKVTVLGQPKANPTVTLFPPSSEELQANKATLVCLISDFYPGAVTVAWKADGSPVKAGVETTKPSKQSNNKYAASSYLSLTPEQWKSHRSYSCQVTHEGSTVEKTVAPTECS
# notes: same as 12777.15382 but without the N-terminal SY of the light chain
# B2: 12892.13195 (antibody, human IgG1, lambda, L234A L235A)
# heavy: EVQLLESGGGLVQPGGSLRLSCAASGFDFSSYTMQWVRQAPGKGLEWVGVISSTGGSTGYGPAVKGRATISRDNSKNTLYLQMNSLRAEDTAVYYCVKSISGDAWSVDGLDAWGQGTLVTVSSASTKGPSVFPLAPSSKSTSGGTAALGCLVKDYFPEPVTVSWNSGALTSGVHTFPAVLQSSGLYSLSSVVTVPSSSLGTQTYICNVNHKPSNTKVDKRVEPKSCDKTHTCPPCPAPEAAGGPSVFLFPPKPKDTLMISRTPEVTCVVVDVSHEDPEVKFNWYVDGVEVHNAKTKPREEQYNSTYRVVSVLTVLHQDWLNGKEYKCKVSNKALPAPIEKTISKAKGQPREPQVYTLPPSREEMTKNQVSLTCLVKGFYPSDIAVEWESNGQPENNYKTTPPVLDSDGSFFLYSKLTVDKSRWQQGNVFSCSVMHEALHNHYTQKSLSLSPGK
# light: ELTQDPAVSVALGQTVRITCSGGGSAYGWYQQKPGQAPVTVIYYNNQRPSGIPDRFSGSSSGNTASLTITGAQAEDEADYYCGSYDSSAVGIFGSGTKVTVLGQPKANPTVTLFPPSSEELQANKATLVCLISDFYPGAVTVAWKADGSPVKAGVETTKPSKQSNNKYAASSYLSLTPEQWKSHRSYSCQVTHEGSTVEKTVAPTECS
# notes: same as 12892.15378 but without the N-terminal SY of the light chain
# B3: 12819.13367 (antibody, human IgG1, lambda, L234A L235A)
# heavy: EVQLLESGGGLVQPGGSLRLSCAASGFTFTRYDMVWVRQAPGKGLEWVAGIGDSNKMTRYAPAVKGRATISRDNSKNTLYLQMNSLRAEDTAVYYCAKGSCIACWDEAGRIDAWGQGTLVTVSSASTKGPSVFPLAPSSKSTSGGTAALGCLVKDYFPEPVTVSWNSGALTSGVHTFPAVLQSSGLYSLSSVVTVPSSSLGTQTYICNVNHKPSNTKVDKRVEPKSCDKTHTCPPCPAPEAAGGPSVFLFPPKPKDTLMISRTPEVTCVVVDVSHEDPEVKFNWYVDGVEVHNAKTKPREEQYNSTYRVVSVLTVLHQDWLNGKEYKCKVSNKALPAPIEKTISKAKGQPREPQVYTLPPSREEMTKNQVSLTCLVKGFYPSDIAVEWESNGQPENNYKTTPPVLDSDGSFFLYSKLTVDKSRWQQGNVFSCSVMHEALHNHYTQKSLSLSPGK
# light: ELTQDPAVSVALGQTVRITCSGGGSYDGSSYYGWYQQKPGQAPVTVIYNNNNRPSDIPDRFSGSSSGNTASLTITGAQAEDEADYYCGSYDRPETNSDYVGMFGSGTKVTVLGQPKANPTVTLFPPSSEELQANKATLVCLISDFYPGAVTVAWKADGSPVKAGVETTKPSKQSNNKYAASSYLSLTPEQWKSHRSYSCQVTHEGSTVEKTVAPTECS
# B4: 13112.13208 (antibody, human IgG1, lambda, L234A L235A)
# heavy: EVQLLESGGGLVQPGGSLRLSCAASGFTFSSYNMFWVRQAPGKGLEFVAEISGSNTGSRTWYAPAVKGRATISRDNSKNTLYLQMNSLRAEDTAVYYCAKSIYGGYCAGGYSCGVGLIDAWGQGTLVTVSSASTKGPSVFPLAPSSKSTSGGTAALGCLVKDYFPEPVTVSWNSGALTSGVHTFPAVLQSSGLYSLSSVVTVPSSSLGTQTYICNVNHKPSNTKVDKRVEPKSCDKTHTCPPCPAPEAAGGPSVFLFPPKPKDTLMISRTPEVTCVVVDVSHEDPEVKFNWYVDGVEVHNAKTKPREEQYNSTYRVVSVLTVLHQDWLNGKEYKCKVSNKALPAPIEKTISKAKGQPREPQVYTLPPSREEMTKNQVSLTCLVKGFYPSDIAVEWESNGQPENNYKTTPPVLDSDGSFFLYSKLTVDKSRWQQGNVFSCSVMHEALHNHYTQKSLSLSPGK
# light: ELTQDPAVSVALGQTVRITCSGGSSDYYGWFQQKPGQAPVTVIYYNNKRPSDIPDRFSGSSSGNTASLTITGAQAEDEADYYCGNADSSVGVFGSGTKVTVLGQPKANPTVTLFPPSSEELQANKATLVCLISDFYPGAVTVAWKADGSPVKAGVETTKPSKQSNNKYAASSYLSLTPEQWKSHRSYSCQVTHEGSTVEKTVAPTECS
# notes: same as 13112.15380 but without the N-terminal SY of the light chain
# B5: 12892.15378 (antibody, human IgG1, lambda, L234A L235A)
# heavy: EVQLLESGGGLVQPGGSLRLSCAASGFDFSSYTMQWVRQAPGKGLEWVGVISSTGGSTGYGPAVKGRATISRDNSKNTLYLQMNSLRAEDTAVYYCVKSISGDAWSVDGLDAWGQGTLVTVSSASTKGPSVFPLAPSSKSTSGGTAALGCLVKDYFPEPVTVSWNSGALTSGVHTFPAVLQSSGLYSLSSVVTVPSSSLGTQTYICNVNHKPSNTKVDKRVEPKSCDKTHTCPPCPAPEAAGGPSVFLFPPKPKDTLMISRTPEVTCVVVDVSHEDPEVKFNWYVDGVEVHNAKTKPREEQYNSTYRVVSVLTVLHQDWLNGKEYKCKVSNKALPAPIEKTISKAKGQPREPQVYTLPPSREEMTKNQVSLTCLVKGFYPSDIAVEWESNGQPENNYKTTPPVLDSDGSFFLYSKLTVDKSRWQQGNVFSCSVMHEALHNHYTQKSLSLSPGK
# light: SYELTQDPAVSVALGQTVRITCSGGGSAYGWYQQKPGQAPVTVIYYNNQRPSGIPDRFSGSSSGNTASLTITGAQAEDEADYYCGSYDSSAVGIFGSGTKVTVLGQPKANPTVTLFPPSSEELQANKATLVCLISDFYPGAVTVAWKADGSPVKAGVETTKPSKQSNNKYAASSYLSLTPEQWKSHRSYSCQVTHEGSTVEKTVAPTECS
# notes: humanized, IgG1 LALA, lambda
# B6: 12796.15376 (antibody, human IgG1, lambda, L234A L235A, V domains shown)
# VH: EVQLLESGGGLVQPGGSLRLSCAASGFDFSSYTMQWVRQAPGKGLEWVGVISSTGGSTGYGPAVKGRATISRDNSKNTLYLQMNSLRAEDTAVYYCVKSVSGDAWSVDGLDAWGQGTLVTVSS
# VL: SYELTQDPAVSVALGQTVRITCSGGGSAYGWYQQKPGQAPVTVIYYNNQRPSDIPDRFSGSSSGNTASLTITGAQAEDEADYYCGSYDSSAVGIFGSGTKVTVLG
# notes: humanized, IgG1 LALA, lambda
# B7: 13112.15380 (antibody, human IgG1, lambda, L234A L235A)
# heavy: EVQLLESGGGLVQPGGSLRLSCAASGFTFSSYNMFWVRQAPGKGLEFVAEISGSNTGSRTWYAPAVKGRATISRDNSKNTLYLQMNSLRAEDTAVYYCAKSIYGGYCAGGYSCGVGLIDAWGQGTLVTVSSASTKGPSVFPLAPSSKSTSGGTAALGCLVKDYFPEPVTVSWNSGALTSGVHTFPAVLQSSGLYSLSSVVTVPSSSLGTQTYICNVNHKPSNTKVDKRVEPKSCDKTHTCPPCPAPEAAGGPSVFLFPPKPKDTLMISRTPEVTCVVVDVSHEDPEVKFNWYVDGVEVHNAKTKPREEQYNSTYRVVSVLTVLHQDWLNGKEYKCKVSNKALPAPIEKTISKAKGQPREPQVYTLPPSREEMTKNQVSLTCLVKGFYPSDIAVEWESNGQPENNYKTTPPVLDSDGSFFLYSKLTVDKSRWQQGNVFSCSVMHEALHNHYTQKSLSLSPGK
# light: SYELTQDPAVSVALGQTVRITCSGGSSDYYGWFQQKPGQAPVTVIYYNNKRPSDIPDRFSGSSSGNTASLTITGAQAEDEADYYCGNADSSVGVFGSGTKVTVLGQPKANPTVTLFPPSSEELQANKATLVCLISDFYPGAVTVAWKADGSPVKAGVETTKPSKQSNNKYAASSYLSLTPEQWKSHRSYSCQVTHEGSTVEKTVAPTECS
# notes: humanized, IgG1 LALA, lambda; whole antibody
# B8: 12748.15381 (antibody, human IgG1, lambda, L234A L235A, V domains shown)
# VH: EVQLLESGGGLVQPGGSLRLSCAASGFTFSDYAMNWVRQAPGKGLEWVAGIGNDGSYTNYGAAVKGRATISRDNSKNTLYLQMNSLRAEDTAVYYCASDIRSRNDCSYFLGGCSSGFIDVWGQGTLVTVSS
# VL: SYELTQDPAVSVALGQTVRITCSGGSSYSYGWFQQKPGQAPVTVIYESNNRPSDIPDRFSGSSSGNTASLTITGAQAEDEADYYCGNADSSSGIFGSGTKVTVLG
# notes: humanized, IgG1 LALA, lambda
# B9: 12748.16124 (antibody, human IgG1, lambda, L234A L235A, V domains shown)
# VH: B8 VH
# VL: SYELTQPPSVSVSPGQTARITCSGGSSYSYGWFQQKPGQAPVTVIYESNNRPSDIPERFSGSSSGTTVTLTISGVQAEDEADYYCGNADSSSGIFGSGTKVTVLG
# notes: alternative germline VL variant of 12748.15381; IgG1 LALA, lambda
# B10: 12865.15377 (antibody, human IgG1, lambda, L234A L235A, V domains shown)
# VH: EVQLLESGGGLVQPGGSLRLSCAASGFDFSDHGMQWVRQAPGKGLEYVGVIDTTGRYTYYAPAVKGRATISRDNSKNTLYLQMNSLRAEDTAVYYCAKTTCVGGYLCNTVGSIDAWGQGTLVTVSS
# VL: SYELTQDPAVSVALGQTVRITCSGGGSSSYYGWYQQKPGQAPVTVIYDDTNRPSGIPDRFSGSSSGNTASLTITGAQAEDEADYYCGGYEGSSHAGIFGSGTKVTVLG
# notes: humanized, IgG1 LALA, lambda
# B11: 12777.15382 (antibody, human IgG1, lambda, L234A L235A)
# heavy: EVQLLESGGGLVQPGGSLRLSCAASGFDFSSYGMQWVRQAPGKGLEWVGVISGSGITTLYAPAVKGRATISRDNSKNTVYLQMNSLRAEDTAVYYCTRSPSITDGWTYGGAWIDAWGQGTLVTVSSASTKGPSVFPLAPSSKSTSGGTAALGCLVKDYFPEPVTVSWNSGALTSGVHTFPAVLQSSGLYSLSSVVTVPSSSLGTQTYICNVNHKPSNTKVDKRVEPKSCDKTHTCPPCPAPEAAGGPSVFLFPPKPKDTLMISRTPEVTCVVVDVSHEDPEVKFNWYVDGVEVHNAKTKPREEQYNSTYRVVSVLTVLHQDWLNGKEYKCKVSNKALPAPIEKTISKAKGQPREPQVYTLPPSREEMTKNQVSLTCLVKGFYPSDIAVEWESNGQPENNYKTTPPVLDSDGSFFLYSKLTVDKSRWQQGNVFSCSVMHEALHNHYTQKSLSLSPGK
# light: SYELTQDPAVSVALGQTVRITCSGGDGSYGWFQQKPGQAPVTVIYDNDNRPSDIPDRFSGSSSGNTASLTITGAQAEDEADYYCGNADLSGGIFGSGTKVTVLGQPKANPTVTLFPPSSEELQANKATLVCLISDFYPGAVTVAWKADGSPVKAGVETTKPSKQSNNKYAASSYLSLTPEQWKSHRSYSCQVTHEGSTVEKTVAPTECS
# notes: humanized, IgG1 LALA, lambda
# B12: 12760.15375 (antibody, human IgG1, lambda, L234A L235A, V domains shown)
# VH: EVQLLESGGGLVQPGGSLRLSCAASGFTFSTFNMVWVRQAPGKGLEYVAEISSDGSFTWYATAVKGRATISRDNSKNTVYLQMNSLRAEDTAVYYCAKSDCSSSYYGYSCIGIIDAWGQGTLVTVSS
# VL: SYELTQDPAVSVALGQTVRITCSGGISDDGSYYYGWFQQKPGQAPVTVIYINDRRPSNIPDRFSGSSSGNTASLTITGAQAEDEADYYCGSYDSSAGVGIFGSGTKVTVLG
# notes: humanized, IgG1 LALA, lambda
# Target: T3, human PD-1 Fc fusion protein (Sino Biological) (human, UniProt Q15116 25-167, limits assumed)
# T3 construct: bought; not shown: Fc of the commercial fusion protein
# Experiment: BLI, PD-1-Fc saturated with 10 ug/ml antibody, then PD-L2-Fc
# Description: (§1) Next the antigen coated surface was saturated with anti-PD-1 antibody at a concentration of 10 μg/ml.
# 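Throughout, for % of all cells in Q1 of panel PD-L1 binding (PD-L1+, CFSE- human PD1 cells): human PD-1 CHO-S cells mixed with CFSE-labelled cyno PD-1 CHO-S cells, antibody binding read with APC anti-human IgG light chain detection.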
# 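Throughout, for % of all cells in Q4 of panel PD-L1 binding (PD-L1-, CFSE- human PD1 cells): human PD-1 CHO-S cells mixed with CFSE-labelled cyno PD-1 CHO-S cells, antibody binding read with APC anti-human IgG light chain detection.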
# 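Throughout, for % of human PD1-gated cells in Q1 (mAb+, PD-L1-): human PD-1 CHO-S cells mixed with CFSE-labelled cyno PD-1 CHO-S cells, antibody binding read with APC anti-human IgG light chain detection.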
# 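Throughout, for % of human PD1-gated cells in Q2 (mAb+, PD-L1+): human PD-1 CHO-S cells mixed with CFSE-labelled cyno PD-1 CHO-S cells, antibody binding read with APC anti-human IgG light chain detection.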
# T3 sequence (Q15116 25-167 limits assumed): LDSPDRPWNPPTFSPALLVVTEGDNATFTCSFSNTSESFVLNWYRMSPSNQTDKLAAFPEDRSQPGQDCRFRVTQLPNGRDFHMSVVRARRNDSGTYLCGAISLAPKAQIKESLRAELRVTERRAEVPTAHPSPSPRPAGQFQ
row,Binder,% Blocking
1,B1,90%
2,B2,77%
3,B3,94%
4,B4,27%

# Target: T4, human PD-1 expressed on CHO-S cells (human, UniProt Q15116 25-288)
# T4 construct: also called PD-1-expressing cells
# Experiment: flow cytometry competition, 10 ug/ml antibody vs R-PE PD-L1-Fc on PD-1 CHO-S cells
# Description: (§2) CHO-S cells transiently transfected to express human PD-1 were mixed with CFSE-stained CHO-S cells transiently expressing cynomolgus PD-1. […] Bound antibody was detected using APC (allophycocyanin) conjugated anti-human IgG light chain antibody.
# (§3) All anti-PD-1 antibodies were tested at a final antibody concentration of 10 μg/ml (see above).
# T4 sequence (Q15116 25-288 limits assumed): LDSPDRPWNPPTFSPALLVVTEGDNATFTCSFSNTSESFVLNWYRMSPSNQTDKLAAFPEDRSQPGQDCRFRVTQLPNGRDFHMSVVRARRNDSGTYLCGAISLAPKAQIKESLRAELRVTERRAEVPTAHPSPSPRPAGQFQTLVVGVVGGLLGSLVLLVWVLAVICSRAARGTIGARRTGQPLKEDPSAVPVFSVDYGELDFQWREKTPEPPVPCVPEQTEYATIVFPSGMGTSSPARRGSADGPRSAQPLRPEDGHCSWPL
row,Binder,% PD-L1 binding inhibition
1,B1,69%
2,B2,88%
3,B3,87%
4,B4,5%

# Target: T4, human PD-1 expressed on CHO-S cells
# Experiment: flow cytometry, PD-1-transfected CHO-S cells; mAb 10 ug/ml, then R-PE PD-L1-Fc as blocked ligand
# Description: as §2, §3
Binder,"% of all cells in Q1 of panel PD-L1 binding (PD-L1+, CFSE- human PD1 cells)","% of all cells in Q4 of panel PD-L1 binding (PD-L1-, CFSE- human PD1 cells)","% of human PD1-gated cells in Q1 (mAb+, PD-L1-)","% of human PD1-gated cells in Q2 (mAb+, PD-L1+)","% of human PD1-gated cells in Q3 (mAb-, PD-L1+)","% of human PD1-gated cells in Q4 (mAb-, PD-L1-)"
B1,2.56%,45.3%,59.6%,14.3%,0.28%,25.9%
B2,0.59%,43.8%,56.1%,5.3%,0.45%,38.2%
B3,0.73%,47.6%,58.8%,5.85%,0.37%,35%

# Target: T1, cyno PD1
# Experiment: as above
# Description: as §2, §3
Binder,"% of all cells in Q3 of panel PD-L1 binding (PD-L1-, CFSE+ cyno PD1 cells)","% of cyno PD1-gated cells in Q1 (mAb+, PD-L1-)","% of cyno PD1-gated cells in Q2 (mAb+, PD-L1+)","% of cyno PD1-gated cells in Q3 (mAb-, PD-L1+)","% of cyno PD1-gated cells in Q4 (mAb-, PD-L1-)"
B1,50%,51.8%,11.4%,0.74%,36.1%
B2,55.2%,42.9%,3.36%,1.28%,52.5%
B3,51.1%,47.8%,3.87%,0.99%,47.3%

# Target: T3, human PD-1 Fc fusion protein (Sino …)
# Experiment: BLI, PD-1-Fc saturated with 10 ug/ml antibody, then PD-L1-Fc
# Description: as §1
row,Binder,% Blocking
1,B1,93%
2,B2,88%
3,B3,94%
4,B4,53%

# Target: T5, His-tagged human PD-1 ECD (human, UniProt Q15116 25-170)
# T5 construct: bought from Acro Biosystems; not shown: His tag
# Experiment: SPR, IgG captured, monovalent PD-1 ECD analyte
# T5 sequence (Q15116 25-170): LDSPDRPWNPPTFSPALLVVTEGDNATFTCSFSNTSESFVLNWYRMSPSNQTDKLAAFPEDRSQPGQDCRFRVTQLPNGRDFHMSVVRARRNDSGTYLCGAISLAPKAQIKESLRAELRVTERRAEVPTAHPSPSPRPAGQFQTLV
Binder,Kd,koff,kon
B5,737 pM,0.00034 s⁻¹,460000 M⁻¹ s⁻¹
B6,542 pM,0.00038 s⁻¹,710000 M⁻¹ s⁻¹
B7,60 pM,6.9e-05 s⁻¹,1.2e+06 M⁻¹ s⁻¹
B8,54 pM,0.00017 s⁻¹,3.2e+06 M⁻¹ s⁻¹
B9,47 pM,0.00016 s⁻¹,3.4e+06 M⁻¹ s⁻¹
B10,558 pM,0.00023 s⁻¹,420000 M⁻¹ s⁻¹
B11,337 pM,8e-05 s⁻¹,240000 M⁻¹ s⁻¹
B12,112 pM,0.00014 s⁻¹,1.2e+06 M⁻¹ s⁻¹

# Target: T2, His-tagged cynomolgus PD-1 ECD
# Experiment: SPR, IgG captured, monovalent PD-1 ECD analyte
# Description: Kinetic binding analysis of the purified anti-PD-1 antibody repertoire was performed on an XPR-36 surface plasmon resonance (SPR) biosensor (Bio-Rad, USA).
# The lowest possible anti-PD-1 antibody density was applied to prevent non-specific binding and mass transport limitation. For measuring antibody kinetics, anti-PD-1 antibodies were adjusted to a concentration of 1.0 μg/ml and captured on anti-human IgG Fc surfaces generated by immobilizing approximately 1000 RU of a monoclonal anti-human Fc antibody (Biacore, Denmark). […] The recorded binding responses were fitted to a simple Langmuir 1:1 binding model for calculation of the on-rate (kₒₙ or ka), off-rate (koff or kd) and affinity (KD) constants using double referencing.
Binder,Kd,koff,kon
B5,2340 pM,0.00069 s⁻¹,290000 M⁻¹ s⁻¹
B6,2220 pM,0.0007 s⁻¹,320000 M⁻¹ s⁻¹
B7,452 pM,0.0011 s⁻¹,2.5e+06 M⁻¹ s⁻¹
B8,101 pM,0.00047 s⁻¹,4.6e+06 M⁻¹ s⁻¹
B9,81 pM,0.00039 s⁻¹,4.8e+06 M⁻¹ s⁻¹
B10,738 pM,0.00038 s⁻¹,510000 M⁻¹ s⁻¹
B11,681 pM,0.00017 s⁻¹,250000 M⁻¹ s⁻¹
B12,6940 pM,0.0072 s⁻¹,1e+06 M⁻¹ s⁻¹
